Assay: soluble on expression in E. coli; label from the status in PepcDB or PDB records

Row | Sequence | soluble on expression in E. coli
1 | MGSDKIHHHHHHMYPRYSEINVKEALSDTPVVFVMGPRQAGKTTLVKSLIMDMGSENWTYITLDDQAQFEIAQADPVGFVRNLPSTRIALDEVQRLPELFVSIKQAVDEQRSPGRFLLTGSANALLLPRLSDSLAGRMESVRLMTLSECEIQGRQPSFLIKLLREEAPSTQDIRVRDHLLQRLVTGCFPEPLQRANERRRQAWYQQYTSTLIQRDIRDLTHIDHPDLMAKLLKLTAFYAGKLVNLTELGGKLGLDRLTIKKYMALLEQLFLVEQLPAWHSNEYKRLVKTPKLHPVDTGMMCAVRGLNQERLLKQPGDFGLVLESFVYNELRKQSVWIDEPLNFYHYRDKDKVEVDVVIENTMGDCFAIEIKAAATLNTKDFTGLKRFQSVAGDRFKIGVLLYDGDHTTAFGDNLYAVPVGALWS | not soluble
2 | MTIPLPGLEVRGSKTGKPIMALLDLLGRTWSLGIIWNLHSGPATFRELQQRCEKISPTLLNTRLKELKTLQLVECQEAGYQLTHQGLDLFDIISPLGSWSSQWAQGLKEDSK | not soluble
3 | SSGAQGAEPMDSRTATTYESVEGGQNKTKLDIRSKEDEGGIQVDKLQDKVSDAAGLGGPVFGAGKDDKKQDLGVTGTG | soluble
4 | MMLSRAKPAVGGESPHTDKRKKKGRKIPKLEDLLSQRDFTGAITLLEFKRHVGEQEDDTNLWIGYCAFHLGDYKRALEEYENATKEENCNPEVWVNLACTYFFLGMYKQAEAAGFKAPKSRLQNRLLFHLAHKFNDEKKLMNFHQNLQDIKEDQLSLASNSEIHLPLPPECWD | not soluble
5 | AKVATGTDILSAASNVSLQKARTWDEGVESKFSTTPVNDIFKDKKVVIFGLPGAYTGVCSSKHVPPYKHNIDKFKAKGVDSVICVAINDPYTVNAWAEKIQAKDAIEFYGDFDGSFHKSLELTTDLSAGLLGIRSERWSAYVVDGKVKALNVEESPSDVKVSGAETILGQI | soluble
6 | MVMWVFGYGSLVWNPGFHYDEKVLGFIKGYKRVFDLACIDHRGTPEHPARTCTLEKAEEAICWGTAFCVRGGPEKERLAMEEDDPLKPAVTGVIVFTSTPDKVSNKYYLGPAPLEDMARFLSSHLAVILYIQRQIATANGPCGNNRDYLFLLEKAMHDIGFVVKGSDLDGFKRDIVFDVLSHFLFHTGHEEDYVIELANEVRKVLAESSTKKVTPVKESRASRVANKSKNNVPTAHQILPHHPEAVATTI | soluble
7 | LKFGTSWKEAYGTGWLIDWKDVKQDNKFTAYLATNLHVADSLRNKDDYKPYNKDGNQKEFLPGDITTEFSLGKYIDA | not soluble
8 | PDVRRDKPVTGEQIEVFANKLGEQWKILAPYLEMKDSEIRQIECDSEDMKMRAKQLLVAWQDQEGVHATPENLINALNKSGLSDLAESLTNDNETNS | soluble
9 | MLEQMGIAAKQASYKLAQLSSREKNRVLEKIADELEAQSEIILNANAQDVADARANGLSEAMLDRLALTPARLKGIADDVRQVCNLADPVGQVIDGGVLDSGLRLERRRVPLGVIGVIYEARPNVTVDVASLCLKTGNAVILRGGKETCRTNAATVAVIQDALKSCGLPAGAVQAIDNPDRALVSEMLRMDKYIDMLIPRGGAGLHKLCREQSTIPVITGGIGVCHIYVDESVEIAEALKVIVNAKTQRPSTCNTVETLLVNKNIADSFLPALSKQMAESGVTLHADAAALAQLQAGPAKVVAVKAEEYDDEFLSLDLNVKIVSDLDDAIAHIREHGTQHSDAILTRDMRNAQRFVNEVDSSAVYVNASTRFTDGGQFGLGAEVAVSTQKLHARGPMGLEALTTYKWIGIGDYTIRA | soluble
10 | HELLSREEVESILSENQLLLQVTPTAPPKTPLSVCFYQVSLEIDRPQSPLVSQSAFEEAATLYNLLPKVDSWICEQLLVDHAQAIHQKGLALAIPLSEAALLKEDFRQSLLTLVQQTLLPPQSLYWMIDESTLLQYPFAIGNFLAKLQQPGCKLIVKEFGHNLNDFELLAEHHIDYLKFNSELIAHIHINQMDEVLISIINGTAQRANIATLAGPVELPPTLSKLIDIGVDLADGTMIGRTEPLSEVLNSSYFAIK | soluble
11 | MPQYKGSREVISIHVGQAGVQIGNACWELFCLEHGIQPDGYHVEDDTYDEETETINTFFAETAGGKHVPRCLFVDLEPTVVDEVRTGTYRSLFHPEQLLSGKEDAANCYARGRYTIGREMIDVVMDRVKRLAENCNGLQGFVIFHSFGGGTGSGFLSLLMERLSTEYGKKPKLEFAIYPAPQVSTSMVEPYNSILMTHTTLEHSDCTFMVDNEAIYDICRRNLDLARPTYTNLNRLVAQIISSITASLRFEGALNVDLTEFQTNLVPYPRIHFPLVTYAPLVSAERASHEQNTVSDMTHACFEPGYQMVKCDPRRGKYMAVCLLYRGDVVPKDINSAIAAVKTKRTVQFVEWCPTGFKVGINYQPPTVVPGGDLGKQTRSVCMISNTTAIAEAWARLDHKFDLMYAKRAFVHWYVGEGMEEGEFSEAREDMAALEKDYEEIGEDELPDDIDDQSYRGRSSGSRY | not soluble
12 | GMSHSLKDFLEACETLGTLRLIVTSSAAVLEARGKIEKLFYAELAKGKYANMHTEGFEFHLNMEKITQVKFETGEAKRGNFTTYAIRFLDEKQESALSLFLQWGKPGEYEPGQVEAWHTLKEKYGEVWEPLPVQL | soluble
13 | MANNVTFWFDVSCPFCWITSRWIKEVEKVRDISVTWVPMSLSVLNDGRDELPQDYKDKMKANWGPARVFAAVATEQPDRVDALYTAMGTRIHNQGEGGKQGYAAYDAIIADALEDVGLPASYAAVANTDTWDNALAAFHATAMDAVGNDVGTPVVKLGDTAFFGPVLTRIPRGEEAGMLFDASFQLAAYPHFFEIKRTRTESPQFD | not soluble
14 | MVSEIVVDVGINEKRVALLEDRELVELFIERNDCERLVGNIYRGRVESVLPGMQAAFIDIGYEKNAFLYVGDAIPQKEFSEDDEEIYSDVKSYNIEEILRPGQEITVQVTKEPIGTKGPRVTTHITLPGRQMVLLPNADYIGISRRIEDEEERAKLRKIAEKIKPKNMGIIVRTVSEGKREEDFKSDLNFLVKLWAKIKQREQSGPVPRCLHKDLSVIYRAVRDIFTWNIDRFVINDRQEYNKVLELVEMISPALKMRVEYFNKNIDLFEYYQIDSMIQKALAKKVWLKCGGYIVIERTEALTVIDVNTGKYVGVNNLEDTVLRTNLDAVKEIGKQLRLRDIGGIIIIDFIDMHDPEHQKQVLEALKQVLKKDRTKTTVVGMTGLGLIEMTRKKVREGLESMMLQDCPYCEGRGKILSPESVARNVEKEISKYFTKTIANAIMVEVHPTVAEVLRGEDNDNLARIQNLFNKKVIIKPSAEVGHEEVKGSCKIKCRNI | not soluble
15 | MGHHHHHHSHVVAILGMGWGAGTGLEMPSAASRGASLLNMQSLGLWTWDCLQGHWAPLIHLNSGPPSGAMERSPTWGEAAELWGSHILLPFRIRHKQTLFASLK | not soluble
16 | MTIIGNPEIGLYTGKLPKGCELCRLGGKLVLFITGECDDNCYYCPVSDDRFGKNKIFANETEVNNSMDVIYEAYRMKALGAGITGGDPILEIGRVIEIIEELKNEFGYDFHIHLYTTGRYVNDDIMRELVNAGLDEMRFHPVKELYLNAVKVALKYDIDIGLELPAIPNEKDKIVRLIKWAEENNVKFVNLNELELNSRNYLNLNSKGFHAKHGITGVEGSFETALDVLKKFEDNKKITVHYCSSIYKDLVETRTRFFRIIKYSSKPYEEYTNEATVVRAIVKTKGEIPILENFGESTGSDEYSISPSIVGDLLNDYTNLINEIYIVEEHPDSRRLRVGEKLIYSKSKNS | not soluble
17 | QVQLQQPGSVLVRPGASVKLSCKASGFTFTSSWMHWAKQRPGQGLEWIGEIHPNSGNTHYNEKFKGKATLTVDTSSSTAYVDLSSLTSEDSAVYYCARMRYGDYYAMDNWGQGTSVTVSSAKTTAPPVYPLAPVCGDTTGSSVTLGCLVKGYFPESVTLLWNSGSLSSGVHTFPAVLQSDLYTLSSSVTVTSSTWPSQSITCNVAHPASSTKVDKKIEPRG | soluble
18 | MEKRRVILVTDGDEFACRAIERVAAEIGGRCISRSQGNPTKLSGEQLVELILQTPHDPVFVMFDDCGALGEGAGEQALRYVATHEQIQVLGALAVASNTHQHEWTKVHVSIDRDGVMTEYGVDKEGFRDLEIGRINGDTVYCLDRLNIPLIVGIGDIGKMGYRDHAKYGAPITRKAVELILERSGGHAGKRKETESADREAAR | not soluble
19 | MFRLLFVSPRIAPNTGNAIRTCAATGCELHLVEPLGFDLSEPKLRRAGLDYHDLASVTVHASLAHAWEALSPARVFAFTAQATTLFTNVGYRAGDVLMFGPEPTGLDEATLADTHITGQVRIPMLAGRRSLNLSNAAAVAVYEAWRQHGFAGAV | not soluble
20 | MSDTDYYRELEASEQRLSDSRAANRESIRTVEDKISDEREKHVARMSEKEKKHHENMLRLTNSSAAERKSAEEAHRKSVEQLKEKHKNETEKLETQIKEIKEKGEEDVRKVELQRANLEKQRTEALDIHLETMKELNEKKFEEIRQQRKEQNILNVEEMKALSTRNAIEHETQMGLIDDTQNMILSRESRQSSLTLIGHMMKSIESGDAISSLLQEMKTYCENRDQYSPTDIKIMKNISADIGKHRAKCDFQRQQLISKINLESNADPQVVDGCFEMSMKMKCCVESSDLRSVCTTLPLLAAQQEHARISGIINKIGSLTDNLDAINVEIKTKSIQWSRRITNALTNTTGN | not soluble
21 | MSLVMSGEKMKVIIVEDEFLAQQELSWLINTHSQMEIVGSFDDGLDVLKFLQHNKVDAIFLDINIPSLDGVLLAQNISQFAHKPFIVFITAWKEHAVEAFELEAFDYILKPYQESRIINMLQKLTTAWEQQNNAAEGHHHHHH | soluble
22 | QQVRQSPQSLTVWEGETAILNCSYEDSTFNYFPWYQQFPGEGPALLISIRSVSDKKEDGRFTIFFNKREKKLSLHITDSQPGDSATYFCAARYQGGRALIFGTGTTVSVSP | soluble
23 | MEENSIKIHKWLYPASWLYGAGVALRNKLFDWGKLQSKSFNVPIICIGNIAVGGTGKTPHTEYLIKLLHDEFQVAVLSRGYKRHTKGFVLSTAESDARSIGDEPYQIQSKFSDIRVAVDEDRCHGIERLLTLKEPPVEVILLDDAFQHRYVKAGLNILLTDYHRLFCDDTLMPAGRLRESAQGKNRAQIVIVTKCPPDIKPIDYNIITKRLNLFPYQQLYFSSFRYGNLRAVFPDCATVQERKLSSLQTEEQILLITGIASPDTIIRELEIHTRNIDLLAFSDHHNFSQRDLAQIKERFGKLRKGQRLIVTTEKDATRLICHQELDEGLKPFIYALPIEVEILQNQQDNFNQHIIGYVRENTRNGSLPERKDAHKSLEHHHHHH | soluble
24 | MSAPVQCPIHPDVHLIEDHRAGDLVCPACGLVVGDRLVDVGTEWRSFSNERSGNDPSRVGAPENPLLSGGDLSTTIAVGFGGSDSDNSLANAQRKSMNNTDRQMTAAMSLIREMSERIHLPRNIQDSASRIFKDVLESKALRGKNNEAQAAACLYIACRKDGVPRTFKEICAVSRVSKKEIGRCFKIIVRSLETNLEQITSADFMSRFCGNLSLPNSIQAAATRIAKCAVDMDLVAGRTPISIAAAAIYMASQASAEKRSAKEIGDVAGAAEITVRQTYKLLYPKALELFPKDFRFVTPIDALPNS | not soluble
25 | MAFEESLVMVSSLSRLSICTSSAYDEAATKNQPDSCVSTSLENFDGAEADGEVSDDGEGKENVRESDSDKETRGFYSLPVTPSRRRRKLTVSGELDANESNKNGSKCSLRRQRREKKKKGVNGECDVGGREGLTVLTRARGGDRSLRMGLQEVKACRDLGFELEVPVPGRISVSTTGSNFDTQTSSGGDSPIATWRISSPGDDPKEVKARLKVWAQAVALASATRQAS | not soluble
